Reference: IntAct's records for PubMed 21135508

B1: Myotubularin (Homo sapiens), Q13496 (parent)
chain: MASASTSKYNSHSLENESIKRTSRDGVNRDLTEAVPRLPGETLITDKEVIYICPFNGPIKGRVYITNYRLYLRSLETDSSLILDVPLGVISRIEKMGGATSRGENSYGLDITCKDMRNLRFALKQEGHSRRDMFEILTRYAFPLAHSLPLFAFLNEEKFNVDGWTVYNPVEEYRRQGLPNHHWRITFINKCYELCDTYPALLVVPYRASDDDLRRVATFRSRNRIPVLSWIHPENKTVIVRCSQPLVGMSGKRNKDDEKYLDVIRETNKQISKLTIYDARPSVNAVANKATGGGYESDDAYHNAELFFLDIHNIHVMRESLKKVKDIVYPNVEESHWLSSLESTHWLEHIKLVLTGAIQVADKVSSGKSSVLVHCSDGWDRTAQLTSLAMLMLDSFYRSIEGFEILVQKEWISFGHKFASRIGHGDKNHTDADRSPIFLQFIDCVWQMSKQFPTAFEFNEQFLIIILDHLYSCRFGTFLFNCESARERQKVTERTVSLWSLINSNKEKFKNPFYTKEINRVLYPVASMRHLELWVNYYIRWNPRIKQQQPNPVEQRYMELLALRDEYIKRLEELQLANSAKLSDPPTSPSSPSQMMPHVQTHF

Variants of: B1
Details: with desm_human DES
In the case of D278A, the “effect of a mutation on the interaction” value is reported as “disrupting interaction”.
With R184G the “effect of a mutation on the interaction” value was “disrupting interaction”.
In the case of R241C, the “effect of a mutation on the interaction” value is reported as “disrupting interaction”.
P205L was tested, and the “effect of a mutation on the interaction” value was “disrupting interaction”.
